From paper PMC2564605 (Journal of molecular biology, 2008) come the findings set out here.

As a reminder, the stoichiometry N is a count of units in the complex or per binding partner.

The series concerns the molecule itself. Briefly: SDS-PAGE and Western blot. (A western blot detects proteins with antibodies after separation by electrophoresis.)

B1: His-tagged aquaporin-9 (natural protein, UniProt P56627 1-295, looked up)
chain: MPSEKDGAKKSLMQRLALKSRIAKETLSEFLGTFIMIVLGCSSIAQAVLSRERFGGIITINIGFASAVVMALYVTFGISGGHINPAVSFAMCAFGRMEWFKFPFYVGAQFLGAFVGAATVFGIYYDGLMAFAGGKLLVVGENATAFIFATYPAPFISTPGAFVDQVVSTMFLLLIVFAMFDSRNLGVPRGLEPVVIGLLIIVLSCSLGLNSGCAMNPARDLSPRLFTALAGWGFEVFTVGNNFWWIPVVGPMIGAFLGGLIYILFIQMHHSKLDPDMKAEPSENNLEKHELSVIM
modifications: unglycosylated (~32 kDa) and glycosylated (~35 kDa) forms
In the case of B1, the “stoichiometry N” value was found to be 2.
